Test results from patent US20200369755A1 (PROTHENA BIOSCIENCES, published 2020).
Where no end group is shown, it is not given here.

Experiments:
Assay in all cases: peptide ELISA, biotinylated peptide on streptavidin plate; background-subtracted absorbance; positive from 0.2
19-33 = biological target: T1, 19-33 (also: biotinylated, site not given here)
T1 construct: also called tau peptide 19-33 (4R0N numbering)
T1 peptide: GLGDRKDQGGYTMHQ
Description: (§1) Additional peptides were used to model potential post-translational modifications of the C- and N-terminal ends of the protein.
(§2) Biotinylated peptides were bound to separate wells of a streptavidin-coated ELISA plate. The plate was blocked and treated with murine 3D6, followed by incubation with a horseradish peroxidase-conjugated anti-mouse antibody. After thorough washing, OPD was applied to the plate and allowed to develop. The plate was read at 450 nm absorbance. Background subtraction was performed with absorbance values from wells containing no primary antibody, and a threshold for positive binding was set to 0.2 absorbance units. […] (FIG. 1)

181-195 = biological target: T2, 181-195 (also: biotinylated, site not given here)
T2 peptide: AKSRLQTAPVPMPDL
Description: as §1, §2

118-132 = biological target: T3, 118-132 (also: biotinylated, site not given here)
T3 peptide: PPAPKTPPSSGEPPK
Description: as §1, §2

325-339 = biological target: T4, 325-339 (also: biotinylated, site not given here)
T4 construct: also called tau peptide 325-339 (4R0N numbering)
T4 peptide: KAKTDHGAEIVYKSP
Description: as §1, §2

316-330 = biological target: T5, 316-330 (also: biotinylated, site not given here)
T5 construct: also called tau peptide 316-330 (4R0N numbering)
T5 peptide: HKLTFRENAKAKTDH
Description: as §1, §2

73-87 = biological target: T6, 73-87 (also: biotinylated, site not given here)
T6 construct: also called tau peptide 73-87 (4R0N numbering)
T6 peptide: SKDGTGSDDKKAKGA
Description: as §1, §2

352-366 = biological target: T7, 352-366 (also: biotinylated, site not given here)
T7 construct: also called tau peptide 352-366 (4R0N numbering)
T7 peptide: NVSSTGSIDMVDSPQ
Description: as §1, §2

154-168 = biological target: T8, 154-168 (biotinylated)
T8 construct: also called tau peptide 154-168 (4R0N numbering)
Description: as §1, §2

217-231 = biological target: T9, 217-231 (also: biotinylated, site not given here)
T9 construct: also called tau peptide 217-231 (4R0N numbering)
T9 peptide: VQIINKKLDLSNVQS
Description: as §1, §2

163-177 = biological target: T10, 163-177 (also: biotinylated, site not given here)
T10 peptide: REPKKVAVVRTPPKS
Description: as §1, §2

145-159 = biological target: T11, 145-159 (also: biotinylated, site not given here)
T11 peptide: PGTPGSRSRTPSLPT
Description: as §1, §2

172-186 = biological target: T12, 172-186 (also: biotinylated, site not given here)
T12 construct: also called tau peptide 172-186 (4R0N numbering)
T12 peptide: RTPPKSPSSAKSRLQ
Description: as §1, §2

82-96 = biological target: T13, 82-96 (also: biotinylated, site not given here)
T13 construct: also called tau peptide 82-96 (4R0N numbering)
T13 peptide: KKAKGADGKTKIATP
Description: as §1, §2

91-105 = biological target: T14, 91-105 (also: biotinylated, site not given here)
T14 construct: also called tau peptide 91-105 (4R0N numbering)
T14 peptide: TKIATPRGAAPPGQK
Description: as §1, §2

244-258 = biological target: T15, 244-258 (also: biotinylated, site not given here)
T15 peptide: GGGSVQIVYKPVDLS
Description: as §1, §2

307-321 = biological target: T16, 307-321 (also: biotinylated, site not given here)
T16 construct: also called tau peptide 307-321 (4R0N numbering)
T16 peptide: GGGNKKIETHKLTFR
Description: as §1, §2

334-348 = biological target: T17, 334-348 (also: biotinylated, site not given here)
T17 construct: also called tau peptide 334-348 (4R0N numbering)
T17 peptide: IVYKSPVVSGDTSPR
Description: as §1, §2

271-285 = biological target: T18, 271-285 (also: biotinylated, site not given here)
T18 peptide: HHKPGGGQVEVKSEK
Description: as §1, §2

298-312 = biological target: T19, 298-312 (also: biotinylated, site not given here)
T19 construct: also called tau peptide 298-312 (4R0N numbering)
T19 peptide: SLDNITHVPGGGNKK
Description: as §1, §2

[1] = biological target: T20, 369-383 (amidated C-term) (also: biotinylated, site not given here)
T20 peptide: TLADEVSASLAKQGL-NH2
Description: as §1, §2

208-222 = biological target: T21, 208-222 (also: biotinylated, site not given here)
T21 construct: also called tau peptide 208-222 (4R0N numbering)
T21 peptide: LKHQPGGGKVQIINK
Description: as §1, §2

Measured: binding result

B1: murine 3D6 monoclonal antibody (antibody, IgG1, V domains shown)
VH: EVQLQQSGADLVRPGALVKLSCKASGFNIKDYYLHWVRQRPEQGLEWIGWIDPENGDTVYDPKFQGKATITADTSSNTAYLQLGSLTSEDTAVYFCSTLDFWGQGTTLTVSS
VL: not shown
notes: Hybridoma-derived mouse antibody; also called m3D6; mouse 3D6
no binding: all assays above
